The record followed here is patent US20260062456A1.

Several values for one entry are separate records, joined by “and”; a condition that tells them apart may be missing. Equal entries are not always repeated.

PD-1 (human), sequence (Q15116 25-288): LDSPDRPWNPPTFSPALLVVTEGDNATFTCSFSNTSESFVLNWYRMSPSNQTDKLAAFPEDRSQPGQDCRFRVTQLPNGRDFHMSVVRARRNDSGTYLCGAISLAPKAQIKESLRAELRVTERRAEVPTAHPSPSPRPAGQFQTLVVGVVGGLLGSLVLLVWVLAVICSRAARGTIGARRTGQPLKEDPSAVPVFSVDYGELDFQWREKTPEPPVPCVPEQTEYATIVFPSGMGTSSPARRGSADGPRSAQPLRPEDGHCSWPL

For one test, the target named is PD-1-Fc (recombinant PD-1-Fc fusion protein) (human) (UniProt Q15116). Kind of test: ForteBio Octet, PD-1-Fc on sensor. In general terms: In BLI a coated tip is dipped into the sample, and binding shifts an interference pattern.
PD-1-Fc (recombinant PD-1-Fc fusion protein) (human), sequence (Q15116 25-167 limits assumed): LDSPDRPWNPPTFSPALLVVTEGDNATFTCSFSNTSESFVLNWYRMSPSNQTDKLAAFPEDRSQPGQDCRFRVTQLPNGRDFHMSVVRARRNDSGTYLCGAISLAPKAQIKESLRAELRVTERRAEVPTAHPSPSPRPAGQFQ
As for PD-L2 IgV-Fc variant H15Q (Fc fusion), the Fortebio binding to PD-1-Fc Response Units (Response Units) stood at 0.007. Take “PD-L2 IgV-Fc variant H15Q, S67L, R76G, I85F (Fc fusion)”: the Fortebio binding to PD-1-Fc Response Units (Response Units) is 0.025.

Another test has as its target T1, CD226 (UniProt Q15762).
T1 sequence (looked up): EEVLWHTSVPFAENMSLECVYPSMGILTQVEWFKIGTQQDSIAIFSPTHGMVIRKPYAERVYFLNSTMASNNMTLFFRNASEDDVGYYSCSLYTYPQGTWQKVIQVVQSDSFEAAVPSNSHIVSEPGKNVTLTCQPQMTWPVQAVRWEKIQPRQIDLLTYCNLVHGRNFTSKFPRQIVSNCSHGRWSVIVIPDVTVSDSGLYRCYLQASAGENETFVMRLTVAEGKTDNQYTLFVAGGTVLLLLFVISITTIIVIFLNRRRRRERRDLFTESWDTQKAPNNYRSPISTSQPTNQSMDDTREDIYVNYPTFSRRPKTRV
The test can be described thus: flow cytometry, cells expressing CD226. (In flow cytometry, cells or beads pass a laser one at a time.)
As for “variant CD155 IgV-Fc V9L, V11M, P18S, N35S, S54G, Q62K, L79P, L104M, T107M, V115M (Fc fusion)”, the MFI at 25 nM was 2320 MFI.

The next test concerns the target human PD-1 and human TIGIT both stably expressed on Jurkat cells (Jurkat/PD-1/TIGIT cells). Kind of test: flow cytometry, Jurkat/PD-1/TIGIT cells, 20 nM.
Take “Full length ECD of PD-L1 (R&D Systems) (from UniProt Q9NZQ7 19-238) (Fc fusion)”: the MFI at 20 nM was determined as 10400 MFI.

As to “Wild-type CD155-ECD-Fc (from UniProt P15151 21-343) (Fc fusion)”, the MFI at 20 nM came out at 1200 MFI. “Fc Control (homodimer) (from UniProt P0DOX5 218-449)” gave an MFI at 20 nM of 478 MFI.

A further test concerns the target PD-1 (human) (UniProt Q15116). The test can be described thus: cell-based or functional assay.
Turning to “variant PD-L1 IgV-Fc I20L, K28E, D43G, N45D, V58A, Q89R, G101G-ins (G101GG) (Fc fusion)”, the Average Relative Luminescence Units amounted to 4290 RLU and the Fold increase in IL2 reporter signal was found to be 1.93 fold. The corresponding values for “variant PD-L1 IgV-Fc D43G, N45D, L56Q, V58A, G101G-ins (G101GG) (Fc fusion)” are 3930 RLU and 1.76 fold.

As to “variant PD-L1 IgV-Fc I20L, D43G, N45D, N78I (Fc fusion)”, the Average Relative Luminescence Units turned out to be 3470 RLU and the Fold increase in IL2 reporter signal is 1.56 fold. Turning to “variant PD-L1 IgV-Fc N45T, V50A, N78I (Fc fusion)”, the Average Relative Luminescence Units came out at 1900 RLU and the Fold increase in IL2 reporter signal is 0.85 fold. In the case of “variant PD-L1 IgV-Fc I20L, I36T, N45D (SEQ ID NO 298) (Fc fusion)”, the Average Relative Luminescence Units came out at 2210 RLU and the Fold increase in IL2 reporter signal worked out at 0.99 fold. Substance “variant PD-L1 IgV-Fc A33D, S75P (SEQ ID NO 287) (Fc fusion)” came in with an Average Relative Luminescence Units of 2040 RLU and a Fold increase in IL2 reporter signal of 0.92 fold. Substance “variant PD-L1 IgV-Fc I20L, M41K, D43G, N45D (Fc fusion)” registered an Average Relative Luminescence Units of 2110 RLU and a Fold increase in IL2 reporter signal of 0.95 fold. The corresponding values for “variant PD-L1 IgV-Fc N45T, N78I (Fc fusion)” are 2180 RLU and 0.98 fold. Take “variant PD-L1 IgV-Fc I20L, K23E, D43G, N45D, V50A, N78I (Fc fusion)”: the Average Relative Luminescence Units worked out at 3590 RLU and the Fold increase in IL2 reporter signal came out at 1.61 fold. The corresponding values for “variant PD-L1 IgV-Fc I20L, A33D, D43G, N45D, V58A, N78I (Fc fusion)” are 4380 RLU and 1.97 fold. The corresponding values for “variant PD-L1 IgV-Fc I20L, N45T (Fc fusion)” are 2180 RLU and 0.98 fold. With “variant PD-L1 IgV-Fc E27G, N45T, K57R (Fc fusion)”, the Average Relative Luminescence Units was determined as 2030 RLU and the Fold increase in IL2 reporter signal turned out to be 0.91 fold. On the same counts, the results for “variant PD-L1 IgV-Fc I20L, I36T, N45D, I47T (Fc fusion)” are 2250 RLU and 1.01 fold. The corresponding values for “variant PD-L1 IgV-Fc N45T, S75P (Fc fusion)” are 1960 RLU and 0.88 fold. Substance “variant PD-L1 IgV-Fc I20L, K23E, D43G, N45D, V58A, N78I (Fc fusion)” gave an Average Relative Luminescence Units of 3510 RLU and a Fold increase in IL2 reporter signal of 1.57 fold. The substance “variant PD-L1 IgV-Fc N45T, L74P, S75P (Fc fusion)” displayed an Average Relative Luminescence Units of 2030 RLU and a Fold increase in IL2 reporter signal of 0.91 fold. As to “variant PD-L1 IgV-Fc A33D, S75P, D85E (Fc fusion)”, the Average Relative Luminescence Units was found to be 2220 RLU and the Fold increase in IL2 reporter signal came to 0.99 fold. The corresponding values for variant PD-L1 IgV-Fc N45T (Fc fusion) are 2190 RLU and 0.98 fold. As to “variant PD-L1 IgV-Fc I20L, E27G, D43G, N45D, V58A, N78I (Fc fusion)”, the Average Relative Luminescence Units is 4590 RLU and the Fold increase in IL2 reporter signal amounted to 2.06 fold. The corresponding values for “variant PD-L1 IgV-Fc E27G, N45T, V50A, N78I (Fc fusion)” are 1960 RLU and 0.88 fold.

“variant PD-L1 IgV-Fc Y14S, K28E, N45T (Fc fusion)” registered an Average Relative Luminescence Units of 2150 RLU and a Fold increase in IL2 reporter signal of 0.97 fold. The corresponding values for variant PD-L1 IgV-Fc M41K (Fc fusion) are 2150 RLU and 0.97 fold. “variant PD-L1 IgV-Fc K23R, N45T, N78I (Fc fusion)”: the Average Relative Luminescence Units was 2690 RLU and the Fold increase in IL2 reporter signal worked out at 1.21 fold.

Take “variant PD-L1 IgV-Fc E27G, N45T, V50A (Fc fusion)”: the Average Relative Luminescence Units was 2000 RLU and the Fold increase in IL2 reporter signal worked out at 0.9 fold.

With “variant PD-L1 IgV-Fc I20L, I36T, N45T, V50A (Fc fusion)”, the Average Relative Luminescence Units was found to be 2160 RLU and the Fold increase in IL2 reporter signal worked out at 0.97 fold.

For “variant PD-L1 IgV-Fc V11E, I20L, I36T, N45D, H60R, S75P (Fc fusion)”, the Average Relative Luminescence Units came to 2280 RLU and the Fold increase in IL2 reporter signal was 1.02 fold.

“variant PD-L1 IgV-Fc I20L, I36T, N45D (SEQ ID NO 254) (Fc fusion)” yielded an Average Relative Luminescence Units of 2110 RLU and a Fold increase in IL2 reporter signal of 0.95 fold.

Substance “variant PD-L1 IgV-Fc I20L, E27G, D43G, N45T, V50A (Fc fusion)” returned an Average Relative Luminescence Units of 2010 RLU and a Fold increase in IL2 reporter signal of 0.9 fold. On the same counts, the results for “variant PD-L1 IgV-Fc T19I, E27G, N45I, V50A, N78I, M97K (Fc fusion)” are 2050 RLU and 0.92 fold.

In the case of “variant PD-L1 IgV-Fc A33D, E53V (Fc fusion)”, the Average Relative Luminescence Units came to 2140 RLU and the Fold increase in IL2 reporter signal is 0.96 fold.

“variant PD-L1 IgV-Fc A33D, N78I (Fc fusion)” yielded an Average Relative Luminescence Units of 2060 RLU and a Fold increase in IL2 reporter signal of 0.92 fold. As for “variant PD-L1 IgV-Fc N45T, V50A (Fc fusion)”, the Average Relative Luminescence Units is 2080 RLU and 2200 RLU; the Fold increase in IL2 reporter signal is 0.93 fold and 0.99 fold. For the substance “variant PD-L1 IgV-Fc V11A, I20L, E27G, D43G, N45D, H51Y, S99G (Fc fusion)”, the Average Relative Luminescence Units was determined as 3380 RLU and the Fold increase in IL2 reporter signal worked out at 1.52 fold.

For the substance “variant PD-L1 IgV-Fc I20L, D43G, N45D, V58A, N78I, D90G, G101D (Fc fusion)”, the Average Relative Luminescence Units is 2000 RLU and the Fold increase in IL2 reporter signal was 0.9 fold. “variant PD-L1 IgV-Fc E27G, N45T, M97I (Fc fusion)”: the Average Relative Luminescence Units worked out at 1970 RLU and the Fold increase in IL2 reporter signal came out at 0.88 fold. “variant PD-L1 IgV-Fc K23R, D43G, N45D (Fc fusion)” had an Average Relative Luminescence Units of 2360 RLU and a Fold increase in IL2 reporter signal of 1.06 fold. On the same counts, the results for “variant PD-L1 IgV-Fc K28N, M41V, N45T, H51N, K57E (Fc fusion)” are 2350 RLU and 1.05 fold. In the case of “variant PD-L1 IgV-Fc A33D, N45T (Fc fusion)”, the Average Relative Luminescence Units is 2000 RLU and the Fold increase in IL2 reporter signal worked out at 0.9 fold. For the substance “variant PD-L1 IgV-Fc A33D, D43G, N45D, V58A, S75P (Fc fusion)”, the Average Relative Luminescence Units was determined as 2310 RLU and the Fold increase in IL2 reporter signal worked out at 1.04 fold. On the same counts, the results for “variant PD-L1 IgV-Fc E40G, D43V, N45T, V50A (Fc fusion)” are 2220 RLU and 0.99 fold. The corresponding values for “variant PD-L1 IgV-Fc M18I, M41K, D43G, H51R, N78I (Fc fusion)” are 2120 RLU and 0.95 fold. On the same counts, the results for “variant PD-L1 IgV-Fc I20L, E27G, N45T, V50A (Fc fusion)” are 1800 RLU and 0.81 fold.

In turn, “variant PD-L1 IgV-Fc I20L, N45T, N78I (Fc fusion)” gave an Average Relative Luminescence Units of 2070 RLU and a Fold increase in IL2 reporter signal of 0.93 fold. As to “variant PD-L1 IgV-Fc I20L, D43G, N45D, V58A, N78I (Fc fusion)”, the Average Relative Luminescence Units stood at 4190 RLU and the Fold increase in IL2 reporter signal is 1.88 fold. The corresponding values for “variant PD-L1 IgV-Fc A33D, N78S (Fc fusion)” are 2060 RLU and 0.92 fold.

Turning to variant PD-L1 IgV-Fc N78L (Fc fusion), the Average Relative Luminescence Units was 2240 RLU and the Fold increase in IL2 reporter signal was 1.01 fold. The corresponding values for “variant PD-L1 IgV-Fc D43G, N45D, V58A (Fc fusion)” are 2460 RLU and 1.11 fold.
